Patent publication US12551573B2, “Compositions and methods for the targeting of PCSK9” (Scribe Therapeutics Inc., priority 2022, dated 2026)
Residue numbers refer to the chain shown, from its start.

B1: DOMAIN_6445 (protein, listed as Alligator sinensis)
chain: MELREAFEDVAVYFTRKEWELLEDEDKELYRDLMLRNYQALVSLGYQGPTPGLICRIKQREVELWVCDDEHHGESSVSENL
B2: DOMAIN_6807 (protein, listed as Xenopus laevis)
chain: LVKFEEVAVVFSEDEWNLLSDQQRGLYMEVMKENYEHLIYLGYEVPVILSLLQDGGGISSDAGSQSKSQQVAVAEGSNVNS
B3: DOMAIN_7184 (protein)
chain: TQMQVKFDDIAVSFSQEEWKYLDEEQKELYREVMKENYQILISLGTGSSTTPKIISHIERGEEPYIRDEPVLVERKTGKSS
modifications: Microcaecilia unicolor
B4: DOMAIN_7098 (protein)
chain: QVPVIFEDVAVYFWEEEWEMLEEWQKELYKETMKENYKTLVSLGMELPTEKPDLIVRIEREENPCVKAQWDSRDKTRWRNS
modifications: Microcaecilia unicolor
B5: DOMAIN_6952 (protein, listed as Alligator mississippiensis)
chain: DQLQEAFEDVALYFTQNEWELLGDGDKVLYRDQMLRNYQALVSLGYQGPAPDLISRIQRQEVELWVCEEENPGESVWTEGL
B6: DOMAIN_7109 (protein)
chain: MRVTFEDIAVSFSQEEWEYLDEEQKELYREVMKENYQTLISLGAGSLTFTPEIISHIERGEEPYSRDEPGSGEREPGKSRC
modifications: Microcaecilia unicolor
B7: DOMAIN_7183 (protein)
chain: VQVPVTFEDVAVYFSEDEWGMLAGWQKELYKETMKENYETLTLLGCLSEKPSLISKIEREEDPCVRDQQDPRDRRKLRSSW
modifications: Microcaecilia unicolor
B8: DOMAIN_7353 (protein)
chain: AQMQVTFEDIAVFFCHEEWKYLDDGQKELYKEVMKENYETLISLGFLCEKPSLISKIEREEDPCVRDQQDFRERRRRLKSF
modifications: Microcaecilia unicolor
B9: DOMAIN_7716 (protein)
chain: VAFEDVAVYFTAEEWDLLGPNQKSLYSEVMMENYENVSYLADNWKKTIAFAHSQKDFIHKLHQRTHKEDEHHTRAEPCEST
modifications: Pogona vitticeps
B10: DOMAIN_8282 (protein, listed as Peromyscus maniculatus)
chain: FQNSLTYDDVHINFTCEEWALLDASQKRLYKDVMLETYSNLTAIGYKWEDHNIEEHCQRFRRRGRHKRSRTEERPYECKQC
B11: DOMAIN_8862 (protein)
chain: TLGLLSFNDVSLEFSWEEWQLLDSAQRYLYREVILENYSNLLSVGYHGTKPDLIFRLEQGEEPWILNAKMSTQNCPEVWED
modifications: Marmota monax
B12: DOMAIN_8317 (protein, listed as Mus caroli)
chain: CQALVTFEDVAVTFTDDEWKRLVPVQRALYKAVMLENYESIISLGLPVPRPDLILQFKRRGEPWMRGFHGSEEKAWPESVS
B13: DOMAIN_8340 (protein, listed as Peromyscus maniculatus)
chain: EQDAVTYEDVHVNFTHEEWALLDPSQKSLYKDVMMETYWNLTCIGYKWEDHNIEEHCQSCRRNGSRCVICHSGHNPCEHKG
B14: DOMAIN_8746 (protein, listed as Mesocricetus auratus)
chain: SQGLVTFGDVAVVFSQEEWEWLSSEQRSLYWRVMLDNYRNLASLGLCASKPDMIALLEQGKDPCVLKRKTARGLRPDLEAV
B15: DOMAIN_9303 (protein)
chain: FKGPVTFKDVTVEFTKEEWKLLTPAQRTLYKDVMLENYNHLVSVGYRVSKPNLVFKLKQGKEPWVLEVEFPRRRCPEELWN
modifications: Marmota monax
B16: DOMAIN_8424 (protein, listed as Peromyscus maniculatus)
chain: MDAVTYEDVQVSFTREEWTLLDPSQKSLYKDVMVETYRNLTAIGYKWEDQNIKKHHQCSRRHGRHERSNSAEKDYECEQCG
B17: DOMAIN_8712 (protein, listed as Mesocricetus auratus)
chain: PADRDAVTYDDVHIGFTQEEWVLLNPSQKSLYKDVMLDTYRNLTAIGYRWQDHNIEEHCENSRRHRRKFSCTTKPYESLQN
B18: DOMAIN_8953 (protein, listed as Mus caroli)
chain: MNGMTYDDVHVNFTGEEWALLSPSQKRLYKDVMLETYRNLTAIGYSWEDRNIEEHFQRSRRHGRHERSHTGENPSVYTQCN
B19: DOMAIN_9141 (protein, listed as Mus caroli)
chain: LNSAVTYDDVNVNFTREEWALLDSSQKSLYKDVMLETYRNLTAIGYNWEGHNIEEHCQSSRRHARTHKRTHTGEKSYECDQ
B20: DOMAIN_8545 (protein, listed as Rattus norvegicus)
chain: APLPLTFEDVAIYFSEQEWQHLETWQKELYKQVMRTNYETLISLDNGLPKPELISWMELGRENFGSWGEGQKVDRGIRCSV
B21: DOMAIN_7607 (protein, listed as Alligator sinensis)
chain: MEPRDAFEDVAVYFTREEWALLDDGDKGLYRDQMLRNYQALVSLGYRGPTPDLICCIQRGKVELWVRDGEDHGEISGSEDL
B22: DOMAIN_7605 (protein, listed as Alligator sinensis)
chain: SKLSEAFEDVAVYFTWKEWALLEAADKMLYRDQMLKNYQALFSLGYRGPTPDLICRIQRGEMELWVSDLEEAGESSLSEDS
B23: DOMAIN_7774 (protein)
chain: PQDSVTFEEVAVSFSREEWALLTDWQKNLYKDVMRDNYEMLNSLDLAAHKPDIILRIERGQEPCVGRLQRSKARERPNHVF
modifications: Pogona vitticeps
B24: DOMAIN_9119 (protein, listed as Mesocricetus auratus)
chain: FQNSLTFDDVAVDFTQEEWVLMDQTQRDLYREVMLENYQNLFSAGCEITKPSLISWLEEDLQIGQREDFQEWEMQDTLREQ
B25: DOMAIN_8492 (protein, listed as Mus musculus)
chain: RERLVSFEDVTVDFSQEEWRRLDSVQRHLYQDVMLEIYSHLLAVGYPVPSPGAIFRIKKRKEARTGEAKLPHPCWCQEVES
B26: DOMAIN_9329 (protein, listed as Peromyscus maniculatus)
chain: NAVTYNDVHVDFTQEEWALMDPSQRNLYKDVMVETYMNLTAIGYNWEDLEVEEHCQNSLKHGRHKRPHTTEKSCEYMGCGK
B27: DOMAIN_7813 (protein, listed as Columba livia)
chain: WQEPVTFEDVAVYLSHAEWDAMAPEQRELYCSVMLDNYQLLASLGYPGPKPDIVYRLERGEEPWGCAPQSPLSWDGPRSPS
B28: DOMAIN_8012 (protein, listed as Callipepla squamata)
chain: PSVPVTFRDVFVQFSRDEWALLDDEQKELHQSVMQSNYEVLMSLYCDLAKPEVLLQMERGEPCLPAEPDLQGAAVSLNPAA
B29: DOMAIN_8425 (protein, listed as Peromyscus maniculatus)
chain: HKKSMVFSDVSLDFSQEEWECLGPAQKDLYRDVMLENYSHLLSVAGLHIPKPQVISLLEQGKEPWMIGKELTRGLCSALES
B30: DOMAIN_8555 (protein, listed as Cricetulus griseus)
chain: MAFEDVAVYFSQEEWVFLDAAQRALYRHVMLENFALVDSIGLSISRPRVIIQLQRGEEPWVPNRTNTGPGRGTRRRPSLGS
B31: DOMAIN_8881 (protein, listed as Cricetulus griseus)
chain: B30 chain with P62S
B32: DOMAIN_9217 (protein, listed as Mesocricetus auratus)
chain: B30 chain with V16M, I44V, T67P, G72S, R74C
B33: DOMAIN_8742 (protein, listed as Peromyscus maniculatus)
chain: MGSVSFEDISLDFTWDEWQDLDSAQRTLYRDVMLENYSSLMFLGHCTTKPELIFKLEHGFGPWSLAEASIQSLPGVHKMTV
B34: DOMAIN_8982 (protein, listed as Mesocricetus auratus)
chain: MGAVTYDDVHINFTQEEWALLNPSQKRLYKDVMHDTYSNLTATGYSLEDHYIEEHCQSSRRCRRHLQRHKKVHIGEKPYES
B35: DOMAIN_8036 (protein, listed as Alligator mississippiensis)
chain: AQRWEAFEDVALYFTQKEWELLRDGDKVLYQEQMLRNYQALVSLGYQGPTPDLICRIQRGDMELWVCDDEDPKESMWSEGL
B36: DOMAIN_8618 (protein, listed as Mesocricetus auratus)
chain: MESVSFEDVAVNFTPEEWALLNSSQKRLHRDVMQENFRNLAAIAKNQEDPTLEDDYEYLRKILPFAVQTGYRLCENQDYAE
B37: DOMAIN_8460 (protein, listed as Peromyscus maniculatus)
chain: MNAVTYDDVHVDFTWDEWALLDPSQKNLYKNVMLETYRNLTAIGYKWEEHNINEKFQRSRRNRRHERSHTGEKSYECNQCG

Tested on: HBEGF locus
Type: cell-based, human
Settings: high-throughput screen of dXR repression of the HBEGF gene; change in abundance of each domain in the library before and after diphtheria toxin selection

In order of rising “Log2 (fold change)” value:
1. B3  2.2019
2. B5  2.3403
3. B7  2.4918
4. B8  2.6649
5. B4  2.7074
6. B6  2.9932
7. B1  3.1151
8. B2  3.1615

Same assay, conditions: repressor domain in dXR, repression of the HBEGF gene; abundance of domain in library after vs before diphtheria toxin selection

In order of falling “Log2 (fold change)” value:
1. B26  4.263
2. B10  3.9882
3. B32  3.8919
4. B31  3.743
5. B27  3.4645
6. B23  3.427
7. B14  3.317
8. B25  3.3107
9. B12  3.3091
10. B30  3.2852
11. B28  3.2046
12. B34  3.1585
13. B37  3.1352
14. B9  3.1171
15. B20  3.1044
16. B19  3.035
17. B22  2.8444
18. B29  2.8391
19. B16  2.7945
20. B17  2.7776
21. B21  2.7102
22. B36  2.6363
23. B18  2.5941
24. B15  2.5344
25. B11  2.3521
26. B35  2.3504
27. B33  2.3354
28. B24  2.2985
29. B13  2.2764
